Laboratory results published in PMC7894019.

B1: WNT8BP(nt-1178) (dsDNA)
DNA 1: GATTATCATGCATTCATTGTATGCCTGTAT
DNA 2: ATACAGGCATACAATGAATGCATGATAATC
B2: WNT8BP(nt-1491) (dsDNA)
DNA 1: GTGAATTTGTGTATTAATTCTTTATTTTCT
DNA 2: AGAAAATAAAGAATTAATACACAAATTCAC

Target: ZNF191 (purified recombinant) (UniProt P17028 1-368)
Experiment: EMSA

ZNF191 (purified recombinant), sequence (P17028 whole entry): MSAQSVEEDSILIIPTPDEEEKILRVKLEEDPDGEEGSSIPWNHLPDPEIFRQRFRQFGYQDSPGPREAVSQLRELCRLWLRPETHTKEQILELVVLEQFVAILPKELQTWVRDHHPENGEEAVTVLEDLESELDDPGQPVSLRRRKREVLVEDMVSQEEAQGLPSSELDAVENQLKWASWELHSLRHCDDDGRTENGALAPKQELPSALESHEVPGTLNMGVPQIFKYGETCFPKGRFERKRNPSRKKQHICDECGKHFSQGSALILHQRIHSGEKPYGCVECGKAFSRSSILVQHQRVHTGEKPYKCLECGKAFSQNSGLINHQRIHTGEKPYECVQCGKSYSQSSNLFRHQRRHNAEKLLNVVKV

Binder | binding result
B1 | binds
B2 | binds
